From paper PMC8899190, “Creating a Selective Nanobody Against 3-Nitrotyrosine Containing Proteins” (Frontiers in Chemistry, 2022)
Positions count from the first letter of the chain named. Numbers in names are those of the source.

B1: Nb-G5 (C115S) (VHH)
VHH: QVQLQESGGGLVQPGGSLRLSCAASKNIANFDSMAWYRRSPGKERDLVARLYSDGGTNYEDSVKGRFNISTDIEKNTVYLQMNNLKLEDTARYYCRADLGLFDTSEFPGQGTQVTVSS
notes: also called C115S mutant of Nb-G5
B2: Nb-G5 (VHH)
VHH: B1 VHH with S105C
notes: alpaca nanobody from phage display; The methods describe two cleavable tags for nanobodies (His6-SUMO cut by ULP1, His-bdNEDD8 cut by bdNEDP1); also called anti-nitroTyr Nb; source: E. coli, purified (TALON, tag cleaved, Superdex 200 SEC)

Experiments:
Conditions in all cases: both partners purified
[1] = molecular target: T1, Avi-tagged, biotinylated h14-3-3ß_(nY130) (Homo sapiens, UniProt P31946, 3-nitrotyrosine at 130; biotin on the N-terminal Avi tag); assay: BLI; Nb-G5 (C115S) against nitrated and WT h14-3-3β; conditions of this experiment not told
T1 construct: human 14-3-3 beta with 3-nitrotyrosine in place of Y130, from a pBAD-AVI-14-3-3-His plasmid; also called 14-3-3β_(nY130); 14-3-3_(nY130); source: E. coli BL21ai with genetic code expansion, co-expressed with GST-BirA, purified (TALON); not shown: Avi tag, N-terminal, kept
T1 sequence (P31946 whole entry): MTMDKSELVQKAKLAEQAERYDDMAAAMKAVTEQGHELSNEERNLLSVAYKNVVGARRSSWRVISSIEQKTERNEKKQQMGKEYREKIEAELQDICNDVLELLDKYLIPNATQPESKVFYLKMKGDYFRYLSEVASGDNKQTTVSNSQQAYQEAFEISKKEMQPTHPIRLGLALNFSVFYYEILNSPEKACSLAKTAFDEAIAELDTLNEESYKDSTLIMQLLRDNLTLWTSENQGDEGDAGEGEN

[2] = molecular target: T2, h14-3-3ß_(nY213), His-tagged (Homo sapiens, UniProt P31946, 3-nitrotyrosine at 213); assay: far-Western, overlay or dot blot; 14-3-3 targets (0.5-5 µg) dotted on PVDF, probed with Nb-G5 diluted 1:3,000 in TBS at room temperature, detected with anti-llama HRP
T2 construct: human 14-3-3 beta with 3-nitrotyrosine in place of Y213 (amber suppression); also called nitrated human 14-3-3ß isoform nY213; source: E. coli BL21ai with genetic code expansion, purified (TALON)
T2 sequence (P31946 whole entry, canonical isoform): as the sequence (P31946 whole entry) above

[3] = molecular target: T3, h14-3-3ß_(nY130), His-tagged (Homo sapiens, UniProt P31946, 3-nitrotyrosine at 130); assay: as above
T3 construct: human 14-3-3 beta with 3-nitrotyrosine in place of Y130 (amber suppression); Held on nickel-coated ELISA plates; also called 14-3-3β nitroY130; source: E. coli BL21ai with genetic code expansion, purified (TALON)
T3 sequence (P31946 whole entry): as above

calmodulin WT = calmodulin WT (species ; human CALM1 entry, …, UniProt P0DP23); assay: BLI; CaM forms on sensors (kind of sensor not told), Nb-G5 in solution (300 nM in Figure 3C); 0.05% Tween; local fits

Row | Binder | fold decrease of binding against Nb-G5 [1] [fold] | binding result [2] | binding result [3] | binding result (calmodulin WT)
1 | B1 | 6 |  |  | 
2 | B2 |  | binds | binds | no binding (tested: 300 nM)
